We go through one protein from publication PMC3844954.

A short description of data set [1]: IFNλ activity of supernatant, Mx1-luciferase reporter, HEK293+IFNλR1. To be noted: glycan lost; control: wild-type IFNλ4-FLAG.
Data set [2] can be described thus: western blot of acetone-precipitated HEK293 medium. The conditions noted are these: glycan lost; control: wild-type IFNλ4-FLAG. In general terms: A western blot detects proteins with antibodies after separation by electrophoresis.

B1: IFNλ4 (interferon lambda 4): N61D (protein)
parent chain: MRPSVWAAVAAGLWVLCTVIAAAPRRCLLSHYRSLEPRTLAAAKALRDRYEEEALSWGQRNCSFRPRRDPPRPSSCARLRHVARGIADAQAVLSGLHRSELLPGAGPILELLAAAGRDVAACLELARPGSSRKVPGAQKRRHKPRRADSPRCRKASVVFNLLRLLTWELRLAAHSGPCL
Consider B1, for which the expression_or_secretion result in data set [1] and in data set [2] was “decreases” each time.
